First the molecules themselves.
B1: Phage-displayed 12-mer peptide HPKQSLHFPDLS (Group B; Phage ID 6) (peptide)
peptide: HPKQSLHFPDLS
modifications: not fully specified
notes: not shown: protein III of bacteriophage M13 (Ph.D-12 library, New England Biolabs); any li
B2: Phage-displayed 12-mer peptide HPYDSLHFPRMS (Group B; Phage ID 4, 6-1) (peptide)
peptide: HPYDSLHFPRMS
modifications: not fully specified
notes: also called Phage ID 6-1; not shown: protein III of bacteriophage M13 (Ph.D-12 library, New England Biolabs); any li
B3: Phage-displayed 12-mer peptide HETAVRQTSPPM (Group A; Phage ID 9, 20, 22) (peptide)
peptide: HETAVRQTSPPM
modifications: not fully specified
notes: no synthetic peptide was tested; also called Phage ID 20; Phage ID 22; not shown: protein III of bacteriophage M13 (Ph.D-12 library, New England Biolabs); any li
B4: Phage-displayed 12-mer peptide HETACRQTSPPM (Group A; Phage ID 11) (peptide)
peptide: HETACRQTSPPM
modifications: not fully specified
notes: as for B1

Ends that are not written are not given here.

The test deals with T1, human GABAC receptor rho1 subunit expressed on stably transfected neuroblastoma cells (human, UniProt P24046 22-479).
T1 construct: whole, on cells; the pentameric state on these cells was not measured; also called GABAC human ρ1; GABAC-transfected neuroblastoma cells
T1 sequence (P24046 22-479): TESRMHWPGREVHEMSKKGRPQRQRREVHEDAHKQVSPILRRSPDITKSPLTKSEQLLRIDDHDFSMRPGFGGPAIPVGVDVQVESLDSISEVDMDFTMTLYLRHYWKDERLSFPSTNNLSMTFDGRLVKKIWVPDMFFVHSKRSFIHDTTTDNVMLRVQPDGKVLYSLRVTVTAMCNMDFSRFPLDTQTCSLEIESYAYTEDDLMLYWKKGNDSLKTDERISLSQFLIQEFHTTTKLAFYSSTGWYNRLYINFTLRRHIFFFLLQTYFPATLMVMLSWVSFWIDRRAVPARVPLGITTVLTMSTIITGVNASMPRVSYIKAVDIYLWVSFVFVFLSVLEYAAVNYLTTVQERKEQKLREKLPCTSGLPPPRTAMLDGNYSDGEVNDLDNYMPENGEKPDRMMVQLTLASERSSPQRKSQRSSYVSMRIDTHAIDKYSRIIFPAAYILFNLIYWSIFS
Put plainly: phage display panning (Ph.D-12 library): subtraction on non-transfected neuroblastoma cells, then three rounds on GABAC-transfected neuroblastoma cells; clones sequenced. From the text:
Screening of phage display peptides with GABAC-expressing cells MAY employ phage display to identify 12-mer peptide sequences that can serve as an NNP anchoring element. GABAC-transfected neuroblastoma cells have yielded sequences of peptides that preferentially bind to GABAC-expressing cells. For phage selection, we used a screening method similar to that previously used to identify phages that bind to ErbB receptors (Stortelers et al., 2003). Briefly, 2×10¹⁰ phages (Ph.D-12 library from New England Biolabs, MA) were incubated with control, non-transfected neuroblastoma cells in binding buffer (PBS containing 0.2% BSA, 0.05% Tween 20) for 2 hr. Non-bound phages were collected and then incubated with GABAC-transfected neuroblastoma cells for 2 hr. After rinsing several times with washing buffer (0.05% Tween 20 in PBS), bound phages were eluted using an acidic glycine buffer (50 mM glycine, 150 mM NaCl, pH 2.7) and neutralized with 1 M Tris, pH 8. After phage titration of the eluate, we performed a second and then a third round of bio-panning using the GABAC-transfected neuroblastoma cells. After the third round of panning, DNA isolated from individual phage plaques was sequenced. […] The 7 illustrated sequences represent individual phage clones from a total of 36 sequenced clones.
On to B1, for which the binding result is recorded as “binds”. In the case of B2 it was “binds”.

On to B3, for which the binding result is “binds”. Then B4, with “binds”.
